In the experiment the target is T1, full-length (FL) RasGAP purified from E. coli (UniProt P20936 1-1047).
T1 construct: p120RasGAP (RASA1), full length; also called purified FL RasGAP; source: E. coli, purified
T1 sequence (looked up): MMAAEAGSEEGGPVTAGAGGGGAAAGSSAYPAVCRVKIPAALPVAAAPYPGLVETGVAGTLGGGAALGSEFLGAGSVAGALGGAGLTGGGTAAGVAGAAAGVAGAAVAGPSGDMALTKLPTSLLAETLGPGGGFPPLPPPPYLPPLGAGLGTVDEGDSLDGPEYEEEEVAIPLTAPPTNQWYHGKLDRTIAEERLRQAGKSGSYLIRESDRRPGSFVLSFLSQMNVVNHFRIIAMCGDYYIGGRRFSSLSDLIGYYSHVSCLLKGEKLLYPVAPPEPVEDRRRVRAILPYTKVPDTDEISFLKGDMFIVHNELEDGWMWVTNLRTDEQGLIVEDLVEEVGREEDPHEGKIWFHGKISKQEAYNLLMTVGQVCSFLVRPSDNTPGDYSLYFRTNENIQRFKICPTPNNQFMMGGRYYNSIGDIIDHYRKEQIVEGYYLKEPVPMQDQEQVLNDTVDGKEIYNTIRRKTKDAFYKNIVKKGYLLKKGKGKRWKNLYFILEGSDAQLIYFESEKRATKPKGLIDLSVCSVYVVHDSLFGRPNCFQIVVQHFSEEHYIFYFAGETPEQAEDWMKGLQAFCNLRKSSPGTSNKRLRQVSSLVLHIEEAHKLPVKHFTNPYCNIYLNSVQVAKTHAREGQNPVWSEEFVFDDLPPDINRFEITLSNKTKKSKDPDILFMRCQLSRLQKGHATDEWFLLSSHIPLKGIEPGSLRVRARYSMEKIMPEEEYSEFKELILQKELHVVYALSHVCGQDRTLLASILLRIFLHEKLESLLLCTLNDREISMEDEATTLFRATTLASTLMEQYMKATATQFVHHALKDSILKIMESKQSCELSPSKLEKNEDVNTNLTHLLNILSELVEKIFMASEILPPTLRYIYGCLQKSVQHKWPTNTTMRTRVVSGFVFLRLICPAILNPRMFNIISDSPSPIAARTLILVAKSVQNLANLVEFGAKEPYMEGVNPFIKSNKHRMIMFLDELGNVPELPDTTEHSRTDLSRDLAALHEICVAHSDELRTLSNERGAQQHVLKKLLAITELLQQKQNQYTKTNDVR
Put plainly: pull-down; GST-merlin fragments pull down FL RasGAP purified from E. coli; western blot. The following applies: both partners purified. In general terms: In western blotting, separated proteins are transferred to a membrane and probed.

B1: GST-merlin aa 1–73 (domain or fragment, UniProt P35240 1-73, looked up)
chain: MAGAIASRMSFSSLKRKQPKTFTVRIVTMDAEMEFNCEMKWKGKDLFDLVCRTLGLRETWFFGLQYTIKDTVA
notes: merlin (NF2), part of the F1 subdomain of the FERM domain, aa 1-73; also called aa 1–73 fragment; part of merlin's F1 subdomain
As to B1, the binding result is “binds”.

The record behind these values is paper PMC6756068, “The NF2 tumor suppressor merlin interacts with Ras and RasGAP, which may modulate Ras signaling” (Oncogene, 2019).
